Residue numbers refer to the chain shown, from its start.
T1: Mex67RRM-LRR (Saccharomyces cerevisiae, UniProt Q99257 2-262)
T1 sequence: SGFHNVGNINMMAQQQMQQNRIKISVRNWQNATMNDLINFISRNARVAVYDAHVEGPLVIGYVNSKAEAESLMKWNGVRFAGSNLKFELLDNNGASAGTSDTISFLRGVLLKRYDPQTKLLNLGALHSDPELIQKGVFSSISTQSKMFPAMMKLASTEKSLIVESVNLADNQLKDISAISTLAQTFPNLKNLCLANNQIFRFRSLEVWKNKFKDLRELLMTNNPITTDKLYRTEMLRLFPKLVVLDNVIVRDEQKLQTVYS

T2: Mex67NTF2L;Mtr2 (Saccharomyces cerevisiae;Saccharomyces …, UniProt Q99257;P34232 264-487;1-184, |)
T2 sequence 1: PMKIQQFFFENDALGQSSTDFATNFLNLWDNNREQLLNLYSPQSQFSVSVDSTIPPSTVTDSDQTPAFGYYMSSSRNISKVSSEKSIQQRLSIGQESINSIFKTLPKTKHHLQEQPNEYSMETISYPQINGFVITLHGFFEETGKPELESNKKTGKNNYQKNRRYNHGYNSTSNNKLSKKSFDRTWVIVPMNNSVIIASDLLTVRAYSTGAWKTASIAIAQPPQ
T2 sequence 2: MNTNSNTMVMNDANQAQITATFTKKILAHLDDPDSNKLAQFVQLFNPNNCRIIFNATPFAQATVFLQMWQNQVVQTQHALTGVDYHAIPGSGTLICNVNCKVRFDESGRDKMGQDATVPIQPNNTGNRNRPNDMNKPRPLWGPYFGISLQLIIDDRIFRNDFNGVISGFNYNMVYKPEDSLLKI

T3: Mex67ΔUBA L263A+M265A;Mtr2 (Saccharomyces cerevisiae;Saccharomyces …, UniProt Q99257;P34232 1-487;1-184, L263A;M265A|)
T3 sequence 1: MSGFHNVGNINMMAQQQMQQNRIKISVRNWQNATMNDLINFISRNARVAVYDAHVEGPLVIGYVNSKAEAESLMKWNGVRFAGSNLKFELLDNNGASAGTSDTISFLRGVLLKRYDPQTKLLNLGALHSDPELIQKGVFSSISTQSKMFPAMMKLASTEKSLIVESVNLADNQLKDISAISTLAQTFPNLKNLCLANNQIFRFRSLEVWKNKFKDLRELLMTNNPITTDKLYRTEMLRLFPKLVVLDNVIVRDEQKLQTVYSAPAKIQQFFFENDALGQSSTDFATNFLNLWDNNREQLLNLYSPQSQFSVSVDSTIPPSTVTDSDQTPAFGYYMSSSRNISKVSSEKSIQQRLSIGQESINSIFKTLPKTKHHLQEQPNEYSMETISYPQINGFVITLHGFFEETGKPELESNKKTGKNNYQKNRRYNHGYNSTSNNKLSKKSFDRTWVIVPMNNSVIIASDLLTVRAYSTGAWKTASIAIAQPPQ
T3 sequence 2: T2 sequence 2

T4: Mex67LRR-NTF2L;Mtr2 (Saccharomyces cerevisiae;Saccharomyces …, UniProt Q99257;P34232 101-487;1-184, |)
T4 sequence 1: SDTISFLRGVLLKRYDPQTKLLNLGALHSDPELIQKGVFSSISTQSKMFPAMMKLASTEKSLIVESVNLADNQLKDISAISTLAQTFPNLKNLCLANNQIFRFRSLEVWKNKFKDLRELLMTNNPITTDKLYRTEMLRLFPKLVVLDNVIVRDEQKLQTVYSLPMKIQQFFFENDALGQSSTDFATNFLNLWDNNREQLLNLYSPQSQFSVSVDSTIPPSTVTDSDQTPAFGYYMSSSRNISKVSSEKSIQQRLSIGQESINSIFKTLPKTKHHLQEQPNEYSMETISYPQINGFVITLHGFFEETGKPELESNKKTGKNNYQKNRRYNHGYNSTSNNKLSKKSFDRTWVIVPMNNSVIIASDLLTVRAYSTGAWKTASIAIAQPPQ
T4 sequence 2: T2 sequence 2

T5: Mex67ΔUBA;Mtr2 (Saccharomyces cerevisiae;Saccharomyces …, UniProt Q99257;P34232 1-487;1-184, |)
T5 sequence 1: T3 sequence 1 with A263L, A265M
T5 sequence 2: T2 sequence 2

T6: Mex67 (full length):Mtr2;Mtr2 (Saccharomyces cerevisiae;Saccharomyces …, UniProt Q99257;P34232 1-599;1-184, |)
T6 sequence 1: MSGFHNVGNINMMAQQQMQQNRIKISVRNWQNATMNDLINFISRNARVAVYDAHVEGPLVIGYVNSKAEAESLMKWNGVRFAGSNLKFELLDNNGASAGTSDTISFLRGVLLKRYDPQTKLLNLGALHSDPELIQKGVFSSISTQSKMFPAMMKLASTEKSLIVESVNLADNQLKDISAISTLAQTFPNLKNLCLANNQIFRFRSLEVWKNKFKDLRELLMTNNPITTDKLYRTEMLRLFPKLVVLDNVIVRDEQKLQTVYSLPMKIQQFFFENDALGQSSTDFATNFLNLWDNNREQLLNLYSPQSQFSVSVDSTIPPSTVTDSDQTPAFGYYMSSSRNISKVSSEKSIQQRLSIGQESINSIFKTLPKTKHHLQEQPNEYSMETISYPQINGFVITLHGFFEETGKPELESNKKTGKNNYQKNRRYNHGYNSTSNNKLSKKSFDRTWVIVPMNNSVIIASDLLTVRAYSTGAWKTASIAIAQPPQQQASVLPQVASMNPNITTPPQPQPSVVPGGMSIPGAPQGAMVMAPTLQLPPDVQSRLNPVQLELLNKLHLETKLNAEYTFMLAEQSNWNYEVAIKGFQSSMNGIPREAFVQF
T6 sequence 2: T2 sequence 2

T7: Mex67ΔUBA L263Y+M265Y;Mtr2 (Saccharomyces cerevisiae;Saccharomyces …, UniProt Q99257;P34232 1-487;1-184, L263Y;M265Y|)
T7 sequence 1: T3 sequence 1 with A263Y, A265Y
T7 sequence 2: T2 sequence 2

T8: Mex67ΔUBA L263D+M265D;Mtr2 (Saccharomyces cerevisiae;Saccharomyces …, UniProt Q99257;P34232 1-487;1-184, L263D;M265D|)
T8 sequence 1: T3 sequence 1 with A263D, A265D
T8 sequence 2: T2 sequence 2

B1: A15 (ssRNA)
RNA: AAAAAAAAAAAAAAA
B2: G15 (ssRNA)
RNA: GGGGGGGGGGGGGGG

Tests used:
Test in all cases: fluorescence anisotropy; 20 mM Tris pH 8.0, 50 mM NaCl, 10 nM DY-547 RNA; temperature not stated
Mex67RRM-LRR = biological target: T1, Mex67RRM-LRR; conditions: protein: recombinant; tags: His6 removed by TEV
Mex67NTF2L;Mtr2 = biological target: T2, Mex67NTF2L;Mtr2; conditions: protein: recombinant;recombinant; tags: His6 removed by TEV;; copies: 1;1
[1] = biological target: T3, Mex67ΔUBA L263A+M265A;Mtr2; conditions: protein: recombinant;recombinant; tags: His6 removed by TEV;; copies: 1;1
Mex67LRR-NTF2L;Mtr2 = biological target: T4, Mex67LRR-NTF2L;Mtr2; conditions: protein: recombinant;recombinant; tags: His6 removed by TEV;; copies: 1;1
Mex67ΔUBA;Mtr2 = biological target: T5, Mex67ΔUBA;Mtr2; conditions: protein: recombinant;recombinant; tags: His6 removed by TEV;; copies: 1;1
[2] = biological target: T6, Mex67 (full length):Mtr2;Mtr2; conditions: protein: recombinant;recombinant, tags: His6 removed by TEV;, copies: 1;1
[3] = biological target: T7, Mex67ΔUBA L263Y+M265Y;Mtr2; conditions: protein: recombinant;recombinant; tags: His6 removed by TEV;; copies: 1;1
[4] = biological target: T8, Mex67ΔUBA L263D+M265D;Mtr2; conditions: protein: recombinant;recombinant; tags: His6 removed by TEV;; copies: 1;1

| Binder | Kd (Mex67RRM-LRR) | Kd (Mex67NTF2L;Mtr2) | Kd [1] | Kd (Mex67LRR-NTF2L;Mtr2) | Kd (Mex67ΔUBA;Mtr2) | Kd [2] | Kd [3] | Kd [4] | binding result ([2]; may form higher order structure) |
| --- | --- | --- | --- | --- | --- | --- | --- | --- | --- |
| B1 | 12000 nM | 860 nM | 640 nM | 340 nM | 310 nM | 260 nM | 420 nM | 820 nM |  |
| B2 |  |  |  |  |  |  |  |  | binds |
